Results on 1 molecule are retold here after PMC4619145 (Virology, 2015).

Assay [1] deals with T1, DENV-2 envelope glycoprotein E domain III (DIII), wild type, displayed on M13 phage (Dengue virus 2, Jamaica/1409/1983).
T1 chain: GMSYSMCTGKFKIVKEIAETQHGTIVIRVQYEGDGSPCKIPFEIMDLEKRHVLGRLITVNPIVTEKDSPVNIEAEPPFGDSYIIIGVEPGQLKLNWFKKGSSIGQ
The assay is described as follows: ELISA.

Assay [2] concerns the target T2, DENV-3 envelope glycoprotein E domain III (DIII), wild type, displayed on M13 phage (Dengue virus 3, Thailand/PaH881/1988).
T2 chain: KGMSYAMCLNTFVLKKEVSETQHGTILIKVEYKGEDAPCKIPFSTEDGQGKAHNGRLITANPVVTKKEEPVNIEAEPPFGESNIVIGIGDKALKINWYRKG
The assay is described as follows: ELISA.

B1: monoclonal antibody 4E11 (IgG) (antibody, V domains shown)
VH: VKLLEQSGAELVKPGASVRLSCTASGFNIKDTYMSWVKQRPEQGLEWIGRIDPANGDTKYDPKFQGKATITADTSSNTAYLHLSSLTSGDTAVYYCSRGWEGFAYWGQGTLVTVSA
VL: ELVMTQTPASLAVSLGQRATISCRASENVDRYGNSFMHWYQQKAGQPPKLLIYRASNLESGIPARFSGSGSRTDFTLTINPVEADDVATYFCQRSNEVPWTFGGGTKLEIK
As to B1, the binding result in assay [1] and in assay [2] was “binds” in each case.
